Source: the supplement of paper PMC9170038

Assays:
MS2 coat protein [1] = assay: apparent KD of MS2 coat protein; designed switch direction (-1 OFF switch, 1 ON switch): 1; higher = weaker reporter binding
Summary of the method: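 Normalised cluster fluorescence was curve-fitted, and each design's median over clusters is its apparent KD. Before this, SNAP-549-labelled MS2 coat protein was titrated from 0.7 or 1.5 nM, doubling to 3 µM, over RNA switches transcribed on Illumina chips by stalled E. coli RNA polymerase. Titrations had no input, 200 uM small-molecule ligand, or an oligonucleotide input, and steps lasted 0.8–1.5 h (lowest) to 10–20 min (highest).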

MS2 coat protein [2] = assay: apparent KD of MS2 coat protein; higher = weaker reporter binding; conditions: Eterna round: R107
Summary of the method: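 Designed RNA switches were transcribed on-chip from Illumina sequencing clusters. They were then titrated with SNAP-549-labelled MS2 coat protein (twofold steps, 0.7 or 1.5 nM to 3 µM; 0.8–1.5 h to 10–20 min per step) in 100 mM Tris-HCl pH 7.5, 80 mM KCl, 4 mM MgCl2, without or with constant ligand. Apparent KD is the per-design median of normalised cluster binding-curve fits.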

[3] = Eterna round: R95, input ligand: FMN 200 uM
[4] = Eterna round: R95, input ligand: microRNA oligo, concentration not stated
[5] = Eterna round: R95, input ligand: none
[6] = input ligand: microRNA oligo, concentration not stated
[7] = input ligand: theophylline 20 uM
[8] = input ligand: theophylline 2 mM
[9] = input ligand: tryptophan 2.4 mM

| Sequence | apparent KD of MS2 coat protein (MS2 coat protein [1]; [3]) | apparent KD of MS2 coat protein (MS2 coat protein [1]; [4]) | apparent KD of MS2 coat protein (MS2 coat protein [1]; [5]) | apparent KD of MS2 coat protein (MS2 coat protein [1]; input ligand: FMN 200 uM) | apparent KD of MS2 coat protein (MS2 coat protein [1]; [6]) | apparent KD of MS2 coat protein (MS2 coat protein [1]; input ligand: none) | apparent KD of MS2 coat protein (MS2 coat protein [2]; input ligand: arginine 13.2 mM) | apparent KD of MS2 coat protein (MS2 coat protein [2]; [7]) | apparent KD of MS2 coat protein (MS2 coat protein [2]; [9]) | further results |
| --- | --- | --- | --- | --- | --- | --- | --- | --- | --- | --- |
| CGGCGCUGUCGAGAGGAUAUGCGGUGAUGGACAUGAGGAUCACCCAUGUUAGCGAUAGCAUUACGGUAGAAGGCUCCACAGCUGU [Soteed Omei mod 12] (puzzle: Same State 2) | 42.5 nM | 187 nM | 420 nM | – | – | – | – | – | – | – |
| UUAAUAAAUCAAGGAUAUCACGUCGAUUAGACGUGAGAAGGUGAUCAUAACAUGAGGAUCACCCAUGUAUUACAUGAAUAUUAA [SSNG1/1-B2] (Eterna round: R96, puzzle: Same State NG 1) | – | – | – | 1810 nM | 721 nM | 659 nM | – | – | – | – |
| ACAAGCUUUUUAGGAAGAGAAGAAAGGGAACAUGAGGAUCACCCAUGUAAGUGGAAUGAAGAAGGAGCACGUCUUAU [JR_SHM208A_Sub096] (puzzle: Sensor for hsa-mir-208a) | 54.2 nM | 17.5 nM | 61 nM | – | – | – | – | – | – | – |
| ACAUGAGGAUCACCCAUGUAUGCUCAGGAAACUGUGCAUCGUGAGGAUAUGGAUCCUAAUUGGAUCCAGAAGGCAUGUAUUAUU [Fiskers NG3ss - 27] (Eterna round: R96, puzzle: Same State NG 3) | – | – | – | 321 nM | 23.9 nM | 153 nM | – | – | – | – |
| UGGCUCAGACUAGGAUAUAUGCGAUCACAUGAGGAUCACCCAUGUCUCGAGCUUCGGCUCGAGGCAUAGAAGGAGUCUGAGCCU [SSNG2/4-D3] (Eterna round: R96, puzzle: Same State NG 2) | – | – | – | 14.8 nM | 35.5 nM | 46.7 nM | – | – | – | – |
| GCUUCACAUGAGGAUCACCCAUGUCGUCGGAGUCGAGGAUAUGGUAACUGUAAACAGUUGCCAGAAGGCGAGGAGC [SS1 - Son of Teenbexe v10] (puzzle: Same State 1) | 23.2 nM | 24.4 nM | 26 nM | – | – | – | – | – | – | – |
| GUUAAACAUGAGGAUCACCCAUGUCAAUGUAGUCGAGGAUAUGGGUAGCCAUGAGGCGUACUAGAAGGCGAGGAGU [Mat - Same State 1 - Mod of JL - D19] (puzzle: Same State 1) | 118 nM | 69.8 nM | 80.5 nM | – | – | – | – | – | – | – |
| GCUACCAUUGAAGCCAACAUGAGGAUCACCCAUGUAUGUUGGUAGGAUAUCGUUUGCUUUGCAAACGAGAAGGGCUAAGGUAGC [JL SSNG3 1.27] (Eterna round: R96, puzzle: Same State NG 3) | – | – | – | 72.2 nM | 57.4 nM | 77.1 nM | – | – | – | – |
| GCGGAGAGGUAAGGAUAUCCAUGGCAUAGACAUGAGGAUCACCCAUGUAGGAGACGAAUUAGGAGGGAGAAGGUACCGGGACGC [AK SSNG2-V2-19.1] (Eterna round: R96, puzzle: Same State NG 2) | – | – | – | 120 nM | 81.2 nM | 179 nM | – | – | – | – |
| AGCUAUCGAAAACGAUAGCAAAAGCAUGUACAUGAGGAUCACCCAUGUCAUGUACAAGCUUUUUGCUCGUCUUAAAA [JL zipper 23] (Eterna round: R96, puzzle: Sensor for hsa-mir-208a) | – | – | – | 919 nM | 14.3 nM | 1000 nM | – | – | – | – |
| GUAAGUUCGAUGCUCGUCUCUCCGUACAAACAUGAGGAUCACCCAUGUGAUCGGGCAGUAGCCCGAUCAGUAUGGCC [Xearlaxe] (puzzle: Sensor for hsa-mir-208a) | 44 nM | 22.6 nM | 47 nM | – | – | – | – | – | – | – |
| GUACAGAUUAUAGGAUAUCACGUCGAUUAGACGUGAGAAGGAUAAUCACACAUGAAUAUUAAUACAUGAGGAUCACCCAUGUAC [SSNG1/17-A2] (Eterna round: R96, puzzle: Same State NG 1) | – | – | – | 12.9 nM | 12.9 nM | 17 nM | – | – | – | – |
| GCUAGGAAAGAAGCCAACAUGAGGAUCACCCAUGUAUGUUGGUAGGAUAUCGUUUGCAAAGCAAACGAGAAGGGCUAACCUAGC [Mat - Same State NG 3 - JL Mod - D73] (Eterna round: R96, puzzle: Same State NG 3) | – | – | – | 202 nM | 203 nM | 184 nM | – | – | – | – |
| GGUCCAGCCUGAGCUGGACAAAAGCAUGUACAUGAGGAUCACCCAUGUCGUGUACAAGCUUUUUGCUCGUCUUAAAA [JL mod - D87 - 5] (puzzle: Sensor for hsa-mir-208a) | 215 nM | 13.9 nM | 296 nM | – | – | – | – | – | – | – |
| CUUCUUCCUUUUACAUGAGGAUCACCCAUGUUUUCAUAUUGAGAGGAUAUCGUAUUUGGAAACAUCGAGAAGGCUCAUUUGUAU [JR_SSNG3_Sub074] (Eterna round: R96, puzzle: Same State NG 3) | – | – | – | 78.6 nM | 98.6 nM | 223 nM | – | – | – | – |
| CCGUUCAAUAAACAUGAGGAUCACCCAUGUUAUAAUAUGGGUGAGGAUAUGCAUCUGAAACAGGUGCAGAAGGCAUAAGAGCGG [JL SSNG3 3.92] (Eterna round: R96, puzzle: Same State NG 3) | – | – | – | 214 nM | 37.7 nM | 100 nM | – | – | – | – |
| GAGGAACAUGAGGAUCACCCAUGUAAAGGGUUUAAAGGAUAUUAUUGGGAGAAAGUAGGGUAAGAAGGUUGAUUGG [JR_SS1_Sub087] (puzzle: Same State 1) | 120 nM | 127 nM | 168 nM | – | – | – | – | – | – | – |
| UAAAUAAUGUAAGGAUAUACAUGAGGAAUUCUCGUAGAAGGUACAUGACAUGAGGAUCACCCAUGUAUCGCUCCGUAGAGCGUA [Mat - Same State NG 1 - JL mod - D26] (Eterna round: R96, puzzle: Same State NG 1) | – | – | – | 288 nM | 5.78 nM | 48.8 nM | – | – | – | – |
| UUUUUUUUUUCGAGACAAGCUUUUUGAUCACAUGAGGAUCACCCAUGUCUCGUCUUAUUUUUUUUUUUUUUUUUUUU [BA Sensor hsa-mir-208a - 2 - 1] (puzzle: Sensor for hsa-mir-208a) | 343 nM | 33.6 nM | 21.3 nM | – | – | – | – | – | – | – |
| AUUAAACAUGAGGAUCACCCAUGUCAACAAAGUCGAGGAUAUGGGCAUAUUAUAUAAUAACCAGAAGGCGAAUAAU [salish99_ss1_r3_084] (puzzle: Same State 1) | 11.1 nM | 12.8 nM | 13.8 nM | – | – | – | – | – | – | – |
| AGAGUUAGACAAAAGUCUAGCUCACCAGAAGGAGCGUCCGAAAGGACAGGUAGGUCGCUGGUACGUGAGGAUCACCCACGUUCCU [ArgAS 18 #OpenEnded #AlternativeMS2] | – | – | – | – | – | – | 21.6 nM | 26.3 nM | 23.1 nM | apparent KD of MS2 coat protein (MS2 coat protein [2]; input ligand: none): 24.6 nM; apparent KD of MS2 coat protein (MS2 coat protein [2]; [8]): 28.4 nM |
| AUAACAUGAGGAUCACCCAUGUAAGCAGAUACCAGCUAGGAAACUAGCCCUUGGCAGCUGCAUAGUGAUCCAUAUAUCUGCUAAU [(M1)-(M2)-(T1)-(T2)-(M)'-(T)'_Design8] | – | – | – | – | – | – | 40.6 nM | 80.5 nM | 59.2 nM | – |
| GAUGGAAUAAGAGAUACCAGACACAAUUUAGCAUGUAUAUACAUGAGGAUCACCCAUGUAGUCCCUUGGCAGCUCUGGUUAGUGU [theeternabot_exclusion_MS2_Theo_B_48] | – | – | – | – | – | – | 21.4 nM | 27.7 nM | 20.8 nM | – |
| ACAUGAGGAUCACCCAUGUGUGUAAGUUCUCGAGGACCGGUACGGCCGCCACUCGAACGAGUGUAACGUUAUACUUAGUAUAAUG [SS Trp A s4] | – | – | – | – | – | – | 22.6 nM | 21.3 nM | 11.4 nM | apparent KD of MS2 coat protein (MS2 coat protein [2]; input ligand: none): 11.4 nM; apparent KD of MS2 coat protein (MS2 coat protein [2]; [8]): 15.2 nM |
| AUUUUCGUAGGUUAAAGUUUAGAAACUGAAGGAGCGUGGUAUUACACAGGUAGGUCGCAGAUUUUACAUGAGGAUCACCCAUGUU [JR_ExcArginiA_Sub011] | – | – | – | – | – | – | 14.9 nM | 25.4 nM | 17.7 nM | apparent KD of MS2 coat protein (MS2 coat protein [2]; input ligand: none): 22 nM; apparent KD of MS2 coat protein (MS2 coat protein [2]; [8]): 20.6 nM |
| AAUACCGGAUCGGCCGCCACUGGUUGGCCCUGUGUACAUGAGGAUCACCCAUGUCCAUCCCAAGCCAGGACCGGGAUCUUUGUGU [Bedice] | – | – | – | – | – | – | 17.1 nM | 24.9 nM | – | apparent KD of MS2 coat protein (MS2 coat protein [2]; [8]): 18.5 nM |
| CACAUGAGGAUCACCCAUGUCUGAACUGAAGGAGCGCUAAACAAGGCAGGUAGGUCGCGGAAUUUUGUGUGCAUAUGCACAUGGG [9.O] | – | – | – | – | – | – | 19.7 nM | 22.3 nM | 25.8 nM | apparent KD of MS2 coat protein (MS2 coat protein [2]; input ligand: none): 28.2 nM; apparent KD of MS2 coat protein (MS2 coat protein [2]; [8]): 24.6 nM |
| AAUAACAUGAGGAUCACCCAUGUAAAAGAUACCAGGGUGAUGAUCCUCCCUUGGCAGCUUACAGCUGAUCAAUAAGAUCGGCUGA [TheoAS #Tail #MS2BeforeAptamer #BothOrNeither] | – | – | – | – | – | – | 87.5 nM | 256 nM | 184 nM | – |
| UUUAGUAUCUUAGAUACCAGUUUUGGGUGCUGAACGUCUCACAUGAGGAUCACCCAUGUAAACCCUUGGCAGCUACAUACGUAAA [theeternabot_exclusion_MS2_Theo_B_41] | – | – | – | – | – | – | 35.7 nM | 58.9 nM | 51.9 nM | – |
| AAUCAUAGGGCGGCCGCCACUAAACAUGAGGAUCACCCAUGUCUCGAGGGCUUGCGUUUGGGAAGUAGGACCGGGCCAAUAGUAA [Tryp B Ex Mod2] | – | – | – | – | – | – | 18 nM | 23 nM | 16.1 nM | apparent KD of MS2 coat protein (MS2 coat protein [2]; input ligand: none): 19.1 nM; apparent KD of MS2 coat protein (MS2 coat protein [2]; [8]): 17 nM |
